Data published in IntAct's records for PubMed 22995871.

Biological target: mare1_mouse Mapre1 (UniProt Q61166)
Sequence (Q61166 whole entry): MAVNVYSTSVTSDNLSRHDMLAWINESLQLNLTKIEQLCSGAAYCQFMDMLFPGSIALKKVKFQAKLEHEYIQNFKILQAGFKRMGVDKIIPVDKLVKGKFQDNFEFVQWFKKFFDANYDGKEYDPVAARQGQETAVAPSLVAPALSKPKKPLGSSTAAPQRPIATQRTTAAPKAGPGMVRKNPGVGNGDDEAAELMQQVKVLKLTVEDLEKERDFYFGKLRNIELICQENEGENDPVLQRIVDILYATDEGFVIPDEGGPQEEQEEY

effect of a mutation on the interaction	Substance
disrupting interaction	Dystonin (Homo sapiens), Q03001 D7246A
disrupting interaction	Dystonin (Homo sapiens), Q03001 D7248A
disrupting interaction	Dystonin (Homo sapiens), Q03001 D7250A
